What was measured:
MS2 coat protein = assay: apparent KD of MS2 coat protein; higher = weaker reporter binding; settings: Eterna round: R107
Experimental: (§1)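 RNA-MaP round R107: designed RNA switches with theophylline, tryptophan, arginine or FMN aptamers are transcribed on-chip within common flanks. They are titrated with SNAP-549-labelled MS2 coat protein in RNA-MaP buffer (100 mM Tris pH 7.5, 80 mM KCl, 4 mM MgCl2), without ligand or with the indicated ligand. Median apparent KD per design.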

[1] = test system: K4 kissing-loop RNA reporter; assay: apparent KD of K4 kissing-loop reporter; higher = weaker reporter binding; settings: Eterna round: R107;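 further: bound reporter read as fluorescence of individual clusters on recovered sequencing chips by microscopy, with normalized cluster intensities fitted with a binding model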
Experimental: as §1, with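 “a labelled K4 kissing-loop RNA reporter” for “SNAP-549-labelled MS2 coat protein”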

[2] = input ligand: theophylline 20 uM
[3] = input ligand: tryptophan 2.4 mM
[4] = input ligand: theophylline 2 mM

UCCUCCUCCGCAAGGAGGAGGAGUUGCGAUACCAGCACGGCAACGUGCCCUUGGCAGCGCACAUGAGGAUCACCCAUGUCAUGUU [#1 Exclusion - Theophylline A Attempt #10 (HarryS)]
apparent KD of MS2 coat protein (MS2 coat protein; input ligand: arginine 13.2 mM): 15.5 nM | apparent KD of MS2 coat protein (MS2 coat protein; [2]): 29.5 nM | apparent KD of MS2 coat protein (MS2 coat protein; [3]): 18.8 nM

AAUUUCGUAGGUAAAAGUUUAGAAACUGAAGGAGCGUGGUAUUACACAGGUAGGUCGCAGAUUUUACAUGAGGAUCACCCAUGUU [JR_SSArginiA_Sub008]
apparent KD of MS2 coat protein (MS2 coat protein; input ligand: arginine 13.2 mM): 20.6 nM | apparent KD of MS2 coat protein (MS2 coat protein; input ligand: none): 22.1 nM | apparent KD of MS2 coat protein (MS2 coat protein; [2]): 22 nM | apparent KD of MS2 coat protein (MS2 coat protein; [4]): 21.7 nM | apparent KD of MS2 coat protein (MS2 coat protein; [3]): 22.8 nM

UAUGCACAUGAGGAUCACCCAUGUAUGGAAGGAGCGGUGAAUAAACCAGGUAGGUCGCCAUUGUGAGGGUCAUCUAUGUAAUCGU [Exclusion - Arginine A (Freestyle 4)]
apparent KD of MS2 coat protein (MS2 coat protein; input ligand: arginine 13.2 mM): 58.6 nM | apparent KD of MS2 coat protein (MS2 coat protein; input ligand: none): 85.3 nM | apparent KD of MS2 coat protein (MS2 coat protein; [2]): 125 nM | apparent KD of MS2 coat protein (MS2 coat protein; [4]): 133 nM | apparent KD of MS2 coat protein (MS2 coat protein; [3]): 91.8 nM

UGUAUGGACUGAAGGAGCGGGAAAAUAACCUGAGGAUCACCCAGGUAAAAGGCGAAAGCCACCCAGGUAGGUCGCAGUCCAUACU
apparent KD of MS2 coat protein (MS2 coat protein; input ligand: arginine 13.2 mM): 5.69 nM | apparent KD of MS2 coat protein (MS2 coat protein; input ligand: none): 10.7 nM | apparent KD of MS2 coat protein (MS2 coat protein; [2]): 10.2 nM | apparent KD of MS2 coat protein (MS2 coat protein; [4]): 10.6 nM | apparent KD of MS2 coat protein (MS2 coat protein; [3]): 12.5 nM

AGACAUGAGGAUCACCCAUGUAGUACGGAUACCAGAUCCAGAUGUAUCCCUUGGCAGCUGUGGUACAGCGUUGCAUCGCUCCUAG [Exclusion - Theophylline A (Freestyle 19)]
apparent KD of MS2 coat protein (MS2 coat protein; input ligand: arginine 13.2 mM): 13.1 nM | apparent KD of MS2 coat protein (MS2 coat protein; input ligand: none): 16.6 nM | apparent KD of MS2 coat protein (MS2 coat protein; [2]): 20.6 nM | apparent KD of MS2 coat protein (MS2 coat protein; [4]): 20.1 nM | apparent KD of MS2 coat protein (MS2 coat protein; [3]): 14.4 nM

GCUACACAGGACCGUACUAAGGAUUCGCCUCGAGGACCGGUACGGCCGCCACUCGUUGCGCGACAUGAGGAUCACCCAUGUGUUC [theeternabot_exclusion_MS2_Trp_A_33]
apparent KD of MS2 coat protein (MS2 coat protein; input ligand: arginine 13.2 mM): 31.1 nM | apparent KD of MS2 coat protein (MS2 coat protein; [2]): 48.3 nM | apparent KD of MS2 coat protein (MS2 coat protein; [4]): 50.7 nM

UCGUGUAUAUCGGAUACCAGUGAAAUCGAUACAUGAGGAUCACCCAUGUGAGAGGAUGUACACCCUUGGCAGCUGUAUAUAUCUA
apparent KD of MS2 coat protein (MS2 coat protein; input ligand: arginine 13.2 mM): 19.5 nM | apparent KD of MS2 coat protein (MS2 coat protein; [2]): 28.5 nM | apparent KD of MS2 coat protein (MS2 coat protein; [3]): 25.1 nM

UUCACGGGCACGGCCGCCACUAACCAACAUGAGGAUCACCCAUGUGUAUUGGACGACCUCUUUGCUAGGACCGGGUGUAUGGUUC [theeternabot_exclusion_MS2_Trp_B_15]
apparent KD of MS2 coat protein (MS2 coat protein; input ligand: arginine 13.2 mM): 25.3 nM | apparent KD of MS2 coat protein (MS2 coat protein; [2]): 32.3 nM | apparent KD of MS2 coat protein (MS2 coat protein; [4]): 32.6 nM

UGUUUUGUGGGAAGGAGCGCAUACUUCACAUGAGGAUCACCCAUGUCAAGACGUGAGUCAGUGCAGGUAGGUCGCCUAGUUAAGA [Same State - Arginine B (Freestyle 16)]
apparent KD of MS2 coat protein (MS2 coat protein; input ligand: arginine 13.2 mM): 52.8 nM | apparent KD of MS2 coat protein (MS2 coat protein; input ligand: none): 70.4 nM | apparent KD of MS2 coat protein (MS2 coat protein; [2]): 59 nM | apparent KD of MS2 coat protein (MS2 coat protein; [4]): 61.9 nM | apparent KD of MS2 coat protein (MS2 coat protein; [3]): 49.3 nM

UGUCAGCGAAAGUUGACAUGUCUUACCGGUCGAGGACCGGUACGGCCGCCACUCGAUCACUCGCACAUGAGGAUCACCCAUGUUG [SS Tryp A #21]
apparent KD of MS2 coat protein (MS2 coat protein; input ligand: arginine 13.2 mM): 21.1 nM | apparent KD of MS2 coat protein (MS2 coat protein; [2]): 24.6 nM | apparent KD of MS2 coat protein (MS2 coat protein; [4]): 23.8 nM

GGAUAGGACACGGCCGCCACUACCUAGGAUACUAGCAACAUUUGGGUACAUGAGGAUCACCCAUGUAGGACCGGGUGUCCUAUCG
apparent KD of MS2 coat protein (MS2 coat protein; input ligand: arginine 13.2 mM): 31.9 nM | apparent KD of MS2 coat protein (MS2 coat protein; input ligand: none): 25.3 nM | apparent KD of MS2 coat protein (MS2 coat protein; [2]): 34.2 nM | apparent KD of MS2 coat protein (MS2 coat protein; [4]): 28.4 nM | apparent KD of MS2 coat protein (MS2 coat protein; [3]): 124 nM

CAUCGGGCGGUAAAUGGCGGGUACGGUGAUACCAGUUUUUGAUUUAACCCUUGGCAGCACUAUACAUGAGGAUCACCCAUGUAAU [theeternabot_exclusion_MS2_Theo_A_15]
apparent KD of MS2 coat protein (MS2 coat protein; input ligand: arginine 13.2 mM): 17.7 nM | apparent KD of MS2 coat protein (MS2 coat protein; [2]): 23.2 nM | apparent KD of MS2 coat protein (MS2 coat protein; [3]): 19.5 nM

UUCGCUGAGGGAAGGAGCGUGAAGACAUGAGGAUCACCCAUGUAGAGGCGCCGAAGGCGUUCGCAGGUAGGUCGCCCUCAGUGAG [#1 Same State - Arginine B Attempt #23 (HarryS)]
apparent KD of MS2 coat protein (MS2 coat protein; input ligand: arginine 13.2 mM): 17.1 nM | apparent KD of MS2 coat protein (MS2 coat protein; input ligand: none): 16.4 nM | apparent KD of MS2 coat protein (MS2 coat protein; [2]): 24.7 nM | apparent KD of MS2 coat protein (MS2 coat protein; [4]): 17.7 nM | apparent KD of MS2 coat protein (MS2 coat protein; [3]): 17.3 nM

UACUUGCUGACGGCCGCCACUAGAACAUGAGGAUCACCCAUGUACGGCGGCCGUCAUGGGUGGACUAGGACCGGGUCAGCAAGAU [(Trp1)-(Ms2)-(T)'-(M)'-(Trp2)_Design6]
apparent KD of MS2 coat protein (MS2 coat protein; input ligand: arginine 13.2 mM): 10.7 nM | apparent KD of MS2 coat protein (MS2 coat protein; input ligand: none): 12 nM | apparent KD of MS2 coat protein (MS2 coat protein; [2]): 20.5 nM | apparent KD of MS2 coat protein (MS2 coat protein; [4]): 13.9 nM | apparent KD of MS2 coat protein (MS2 coat protein; [3]): 13.2 nM

UAUCGUCAGACGGCCGCCACUAGAACAUGAGGAUCACCCAUGUACGGCCGCCCGGUGUGAUCCACUAGGACCGGGUCUGACGAAU [(Trp1)-(Ms2)-(T)'-(M)'-(Trp2)_Design23]
apparent KD of MS2 coat protein (MS2 coat protein; input ligand: arginine 13.2 mM): 39.3 nM | apparent KD of MS2 coat protein (MS2 coat protein; input ligand: none): 66.8 nM | apparent KD of MS2 coat protein (MS2 coat protein; [2]): 77.9 nM | apparent KD of MS2 coat protein (MS2 coat protein; [4]): 95.7 nM | apparent KD of MS2 coat protein (MS2 coat protein; [3]): 53.8 nM

GAGAAUAACGGAAGGAGCGAGUAAUGGAGUGAUGUUCCAAUCAAUAAAACACAAUAAAAUACUCAGGUAGGUCGCCGUAGUAGUU [Exclusion Argiie B GF 12]
apparent KD of K4 kissing-loop reporter ([1]; input ligand: FMN 200 uM): 244 nM | apparent KD of K4 kissing-loop reporter ([1]; input ligand: arginine 13.2 mM): 339 nM | apparent KD of K4 kissing-loop reporter ([1]; input ligand: none): 323 nM | apparent KD of K4 kissing-loop reporter [1, 2]: 330 nM | apparent KD of K4 kissing-loop reporter [1, 3]: 215 nM

GGAAGGAAGGGAAGGAGCGCGCAGGCAGUGAUGUUGCCAAACAAAACAAACAAAACAAAAGCGCAGGUAGGUCGCCCGAAGGACG
apparent KD of K4 kissing-loop reporter ([1]; input ligand: FMN 200 uM): 67.8 nM | apparent KD of K4 kissing-loop reporter ([1]; input ligand: arginine 13.2 mM): 92.8 nM | apparent KD of K4 kissing-loop reporter ([1]; input ligand: none): 89.7 nM | apparent KD of K4 kissing-loop reporter [1, 2]: 126 nM | apparent KD of K4 kissing-loop reporter [1, 3]: 62.9 nM

Source: the supplement of paper PMC9170038
